From patent US11098109B2, “Single-chain variable fragment anti-CD133 antibodies and uses thereof” (REGENTS OF THE UNIVERSITY OF MINNESOTA, priority 2010, dated 2021) come the findings set out here.

The target in assay [1] is T1, CD133 (Homo sapiens, UniProt O43490).
T1 construct: endogenous in cells
T1 sequence (O43490 20-865): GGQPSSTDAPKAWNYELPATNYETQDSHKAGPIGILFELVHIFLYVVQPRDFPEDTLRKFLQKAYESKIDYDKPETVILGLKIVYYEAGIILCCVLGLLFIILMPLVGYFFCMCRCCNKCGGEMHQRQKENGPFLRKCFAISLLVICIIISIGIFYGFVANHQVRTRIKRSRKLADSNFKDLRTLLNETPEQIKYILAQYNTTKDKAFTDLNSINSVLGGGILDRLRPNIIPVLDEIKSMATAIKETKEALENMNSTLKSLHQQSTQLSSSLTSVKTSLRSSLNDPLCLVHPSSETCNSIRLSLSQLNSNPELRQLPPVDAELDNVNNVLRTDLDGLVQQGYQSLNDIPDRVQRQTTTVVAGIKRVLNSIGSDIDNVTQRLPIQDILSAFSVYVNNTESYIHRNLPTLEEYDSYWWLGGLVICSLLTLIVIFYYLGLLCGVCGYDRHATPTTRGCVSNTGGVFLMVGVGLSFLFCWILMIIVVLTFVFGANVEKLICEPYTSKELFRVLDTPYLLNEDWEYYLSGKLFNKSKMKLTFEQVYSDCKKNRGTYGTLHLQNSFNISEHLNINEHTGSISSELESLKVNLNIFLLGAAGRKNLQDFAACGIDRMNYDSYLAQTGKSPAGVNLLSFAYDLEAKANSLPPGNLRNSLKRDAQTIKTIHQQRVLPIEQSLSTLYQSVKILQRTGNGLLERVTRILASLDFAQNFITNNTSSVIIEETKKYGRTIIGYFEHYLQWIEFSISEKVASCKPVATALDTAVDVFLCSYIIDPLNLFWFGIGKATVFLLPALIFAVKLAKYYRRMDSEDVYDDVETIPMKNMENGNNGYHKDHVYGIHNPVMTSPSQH
In words: Flow cytometry of FITC-labeled CD133scFv on CD133-transfected HEK293-TLR2 cells. It counts as binding. To be noted: CD133-transfected vs control HEK293-TLR2 cells; listed as CD133scFv. As for the experimental part:
FIG. 4: CD133scFV recognizes the CD133 marker. The CD133scFv was labeled with FITC. An oligonucleotide was prepared from the known GenBank sequence of CD133 and then transfected into HEK293-TLR2 cells using a polyethylenimine (PEI)-DNA complex. The cells were incubated with anti-CD133scFv-FITC complex, washed, and then analyzed by flow cytometry. Data are represented in standard histogram format whereby % positive cells are plotted against fluorescence intensity. […] Controls include transfected cells reacted with empty vector, transfected cells reacted with an isotype control, or untransfected cells that are not reacted with CD133-FITC.
Ult-Luc or CMV-CD133 pDNA constructs were transfected into HEK293-TLR2 cells using JetPEI transfection reagent according to the manufacturer's instructions (Polyplus Transfection). Briefly, 7.5×10^5 cells/well were seeded in a 6-well plate. Twelve hours later, 2.5 μg of each pDNA were diluted in 5 μl 5% dextrose and mixed with 0.35 μL JetPEI also in 5 μl 5% dextrose. Following incubation for 15 minutes, the transfection mix was added to the cells. […]
CD133scFv was labeled with FITC at a FITC:scFv ratio of 24:1 (Invitrogen, Carlsbad, Calif.) and dialyzed to remove any free unbound FITC. […] Data are represented in standard histogram format whereby % positive cells are plotted against fluorescence intensity. […]

In assay [2] the target is T1, CD133. In words: Western blot screening of hybridoma supernatants on Caco-2 lysates. It counts as binding. Conditions: CD133^+ Caco-2 cell lysates. As for the experimental part: FIG. 2: Analysis of the newly generated CD133 hybridoma. Supematants of hybridoma clones were tested as a primary antibody in western blot (A) and Immunofluorescence (B) assays. Pre-immunized serum (-ve) or post immune anti sera (a.s.) served as controls. For western blot, Caco-2 lysates normalized for protein concentration were loaded onto a SDS-PAGE gel, resolved, blotted onto a nitrocellulose membrane and cut into strips. Each strip was probed with supernatant from the identified hybridoma. Membrane in Lane 1 was probed with a commercially available antibody (ab 19898, Abcam) and served as an additional positive control. For immunofluorescence, Caco-2 cells were fixed and immunostained with the hybridoma supernatants. A commercially available antibody (293C3, Militenyi) was used as additional positive control. Scale bars in the panel represent 200 micrometers. Supernatant of Hybridoma Clone 7 was used in the immunohistochemical analysis of primary glioblastoma and kidney tissue (C).
Caco-2 cells were lysed in RIPA buffer (Thermo Scientific, Waltham. Mass.) and centrifuged at 10,000 rpm and 4° C. to remove debris. The protein concentration of cell lysates was measured using BCA protein assay kit (Thermo Scientific, Waltham, Mass.), with bovine serum albumin as the standard. […]
For orientation: Immunoblotting shows a protein as a band on a membrane.

“Also recorded” adds a separate entry of the source.

B1: No. 11 scFv: soluble scFv of the Hybridoma Clone 7 antibody expressed in E. coli Top10F', SEQ ID NO:58; also used FITC-labeled (protein)
scFv: MDIVLSQSPAIMSASPGEKVTISCSASSSVSYMYWYQQKPGSSPKPWIYRTSNLASGVPARFSGSGSGTSYSLTISSMEAEDAATYYCQQYHSYPPTFGAGTKLELKSSGGGGSGGGGGGSSRSSLEVKLVESGPELKKPGETVKISCKASGYTFTDYSMHWVNQAPGKGLKWMGWINTETGEPSYADDFKGRFAFSLETSASTAYLQINNLKNEDTATYFCATDYGDYFDYWGQGTTLTVSS
modifications: optionally FITC-labeled; scFv polypeptide
Turning to B1, the “reaction of FITC-labeled scFv with cells” value with CD133 [1] was “Only the CD133-transfected cells reacted; also recorded: Only the CD133 transfected cells reacted”.

B2: Hybridoma Clone 7: monoclonal antibody produced by Hybridoma Clone 7 that specifically binds to human CD133 (antibody, V domains shown)
VL: DIVLSQSPAIMSASPGEKVTISCSASSSVSYMYWYQQKPGSSPKPWIYRTSNLASGVPARFSGSGSGTSYSLTISSMEAEDAATYYCQQYHSYPPTFGAGTKLELK
VH: LEVKLVESGPELKKPGETVKISCKASGYTFTDYSMHWVNQAPGKGLKWMGWINTETGEPSYADDFKGRFAFSLETSASTAYLQINNLKNEDTATYFCATDYGDYFDYWGQGTTLTVSS
Regarding B2, the “Western blot band with hybridoma supernatant” value with CD133 [2] is “distinct band corresponding to the predicted molecular weight of CD133”.
